Test results reported in paper PMC5001605 (Nucleic Acids Research, 2016).

B1: Pyrococcus furiosus Pcc1 (pfuPcc1), full-length (natural protein)
chain: MKAKRVQAKIEIEFPSEDVAKVVYEAVLYEHLSVPYRRSEIDFKLEGKKIILDIKATDSSALRGTVNSYLRWIKAAIDVIEV
B2: Pyrococcus furiosus Kae1 (pfuKae1) (natural protein)
chain: MIALGIEGTAHTLGIGIVTENKVLANVFDTLKTEKGGIHPKEAAEHHAKLLKPLLRKALEEAGVSMEDIDVIAFSQGPGLGPALRVVATAARALAIKYNKPIVGVNHCIAHVEITKMFGVKDPVGLYVSGGNTQVLALEGGRYRVFGETLDIGIGNALDVFARELGLGFPGGPKIEKLALKGEKYIELPYAVKGMDLSFSGLLTEAIRKYKSGKYRVEDLAYSFQETAFAALVEVTERALAHTEKEEVVLVGGVAANNRLREMLRIMAEDRGVKFFVPPYDLCRDNGAMIAYTGLRMYKAGIKFKLEETIVKQKFRTDEVEVVW
B3: Methanococcus jannaschii Kae1 (mjKae1), amino acids 1-328 (domain or fragment)
chain: MICLGLEGTAEKTGVGIVTSDGEVLFNKTIMYKPPKQGINPREAADHHAETFPKLIKEAFEVVDKNEIDLIAFSQGPGLGPSLRVTATVARTLSLTLKKPIIGVNHCIAHIEIGKLTTEAEDPLTLYVSGGNTQVIAYVSKKYRVFGETLDIAVGNCLDQFARYVNLPHPGGPYIEELARKGKKLVDLPYTVKGMDIAFSGLLTAAMRAYDAGERLEDICYSLQEYAFSMLTEITERALAHTNKGEVMLVGGVAANNRLREMLKAMCEGQNVDFYVPPKEFCGDNGAMIAWLGLLMHKNGRWMSLDETKIIPNYRTDMVEVNWIKEIK

Assays:
[1] = target: B3; assay: SEC-MALS
[2] = target: B1; assay: SEC-MALS
[3] = target: B1; assay: AUC
[4] = target: B1; assay: SEC-MALS; remark: listed apart in the source

Binder | binding result [1] | stoichiometry N [2] | stoichiometry N [3] | stoichiometry N [4]
B1 | binds | – | – | –
B2 | – | 1 Kae1 per Pcc1 (2:2) | – | –
B3 | – | 1 Kae1 per Pcc1 (2:2) | ~1 Kae1 per Pcc1 (2:2) | 0.5 Kae1 per Pcc1 (1:2)
